{"source": "paper PMC10030117", "about": "(eLife, 2023)", "binders": {"B1": {"name": "Antibody 3E11, full-length (mouse variable region-human IgG1 constant region chimera) (antibody, V domains shown)", "VH": "EVQLQQSGTVLARPGASVKMSCKASGYSFTNYWVHWVKQRPGQGLEWIGAIYPGNGDTTYNQKFKDKAKLTAVTSTSSAYMDLSSLTSEDSAVYYCTRRANYGSRYDYWGQGTTLTVSS", "VL": "DIVMTQSTSSLSASLGDRVTISCRASQGINNYLNWYQQKPDGTVKLLIYHTSRLHSGVPSRFSGSGSGTDYSLTISNLEQEDIATYFCQQGDTLPYTFGGGTKLEIK", "notes": "IgG1"}, "B2": {"name": "3E11 scFv displayed on M13 phage (scFv, V domains shown)", "VH": "B1 VH", "VL": "B1 VL", "notes": "VL-linker-VH order"}, "B3": {"name": "3A3 Fab (Fab, V domains shown)", "VH": "QVQLQQSGAELLKPGASVKLSCTASGFNIKDTYIHWLKQRPEQGLEWIGRIGPAIGNTIYAPKFQGKATITTDTSSNTAYLQLSSLTSEDTAVYYCARYYGSSYYYFDYWGQGTTLTVSS", "VL": "DIVMTQSAPSVPVTPGESVSISCRSSKSLLHSNGNTYLYWFLQRPGQSPQLLIYRMSNLASGVPDRFSGSGSGTAFTLRISRVEAEDVGVYYCMQYLEYPLTFGAGTKLELK"}, "B4": {"name": "Antibody 3A3, full-length (mouse variable region-human IgG1 constant region chimera) (antibody, V domains shown)", "VH": "B3 VH", "VL": "B3 VL"}, "B5": {"name": "Antibody RAY53, full-length human IgG1 (antibody, V domains shown)", "VH": "QVQLVQSGAVVLKPGASVKLSCKASGFNIKNTYIHWLKQAPGQRLEWIGRIGPAIGNTIYAPKFQGKATITTDTSASTAYLELSSLRSEDTAVYYCARYYGSSYYYLDYWGQGTTVTVSS", "VL": "B3 VL with A8P, P9L, S18P, R44K, Y54A, N58T, R79K, L111I"}, "B6": {"name": "RAY53 Fab (Fab, V domains shown)", "VH": "B5 VH", "VL": "B3 VL with A8P, P9L, S18P, R44K, Y54A, N58T, R79K, L111I"}}, "key": {"[1]": {"biological_target": "T1, SARS-2 spike (2P-stabilized ectodomain with foldon) (SARS-CoV-2 Wuhan-Hu-1, UniProt P0DTC2, K986 substituted with proline | V987 substituted with proline)", "test": "far-Western, overlay or dot blot", "conditions": "both partners purified"}, "[2]": {"biological_target": "T1, SARS-2 spike (2P-stabilized ectodomain …)", "test": "ELISA"}, "[3]": {"biological_target": "T2, SARS-2 HexaPro S2 (SARS-CoV-2 Wuhan-Hu-1, HexaPro, proline substitution at position 817 | proline substitution at position 892 | …)", "test": "cryo-EM structure", "conditions": "both partners purified"}, "[4]": {"biological_target": "T2, SARS-2 HexaPro S2", "test": "BLI + SPR", "conditions": "both partners purified"}, "[5]": {"biological_target": "Authentic wild-type SARS-2 spike, full-length unstabilized, on the cell surface (Severe acute respiratory syndrome …, UniProt P0DTC2)", "test": "flow cytometry on cells", "conditions": "one partner purified"}, "[6]": {"biological_target": "SARS-2 HexaPro spike (SARS-CoV-2 Wuhan-Hu-1, HexaPro; T4 …, proline substitution at position 817 | proline substitution at position 892 | …)", "test": "BLI", "conditions": "both partners purified"}, "[7]": {"biological_target": "SARS-2 4P-DS spike (4P with an additional stabilizing disulfide) (SARS-CoV-2 Wuhan-Hu-1, UniProt P0DTC2, disulfide bond between amino acids 965 and 1003 (965) | disulfide bond between …, disulfide bond between amino acids 965 and 1003; Alexa Fluor 647 label in the yeast display experiment)", "test": "SPR", "conditions": "both partners purified"}}, "note": "Numbering of substitutions follows the chain as printed."}
{"binder": "B1", "values": [{"measurement": "binding result", "setting": "[1]", "value": "binds"}]}
{"binder": "B2", "values": [{"measurement": "binding result", "setting": "[2]; one partner purified", "value": "binds"}]}
{"binder": "B3", "values": [{"measurement": "stoichiometry N", "setting": "[3]", "value": 1, "unit": "Fab per S2 protomer"}, {"measurement": "Kd", "setting": "[4]", "value": "~3", "unit": "nM"}]}
{"binder": "B4", "values": [{"measurement": "binding result", "setting": "[5]", "value": "no binding (tested: ~1–300 nM)"}, {"measurement": "kon", "setting": "[6]", "value": "800000 ± 100000", "unit": "M⁻¹ s⁻¹"}, {"measurement": "fold worse ELISA EC50 (stressed against fresh)", "setting": "[2]; both partners purified", "value": "~150", "unit": "fold"}]}
{"binder": "B5", "values": [{"measurement": "Kd", "setting": "[5]", "value": "100 ± 20", "unit": "nM"}, {"measurement": "binding result", "setting": "[2]; both partners purified", "value": "binds"}, {"measurement": "Kd", "setting": "[7]", "value": "100 ± 16", "unit": "nM"}]}
{"binder": "B6", "values": [{"measurement": "Kd", "setting": "[7]", "value": "1300 ± 200", "unit": "nM"}]}
